Consider 1 molecule from patent US20150267232A1, “IN VIVO AND IN VITRO CARBENE INSERTION AND NITRENE TRANSFER REACTIONS CATALYZED BY HEME ENZYMES” (California Institute of Technology, priority 2012, published 2015).

Assay type in all cases: biochemical
Test [1] can be described thus: N—H insertion, diethyl amine and 4.11 (lidocaine synthesis). Particulars: GC-MS. On the procedure: Diazo amides are also competent substrates for this reaction, and alpha-amino amides like 4.10 (FIG. 37A) can be produced in moderate yields. This transformation is particularly valuable because diazo amides can give rise to important building block compounds like diamines Additionally, this transformation can be used for the synthesis of lidocaine, which we were able to prepare using diethyl amine and 4.11 in the presence of H2-5-F10 (Scheme 1). […] (hold 1 min), 100-140° C. (6° C./min), 140-260° C. (20° C./min), 260° C. (hold 3 min)

The nature of test [2]: N—H insertion, aniline with ethyl 2-diazopropanoate. Particulars: protein 20 μM, diazo 10.0 mM, aniline 20 mM. On the procedure: The reactions shown in FIG. 37A were carried out with protein (20 μM), ethyl diazo acetate (8.5 mM), aniline (20 mM) and Na2S2O4 (10 mM) in phosphate buffer (pH 8) and allowed to shake at room temperature for 12 h. Yields are reported in parenthesis and TTN are presented in italics. Yields were determined by GC calibrated for each product. An isolated yield of 65% for compound 4.3 was determined for the milligram scale reaction run as follows: 25 mM EDA, 25 mM aniline, 25 μM protein, and 25 mM Na2S2O4. The reaction producing compounds 4.5 and 4.10 were carried out with protein (20 μM), ethyl diazo acetate (10.0 mM), aniline (20 mM) and Na2S2O4 (10 mM).
While substituted diazo compounds can also be used for insertion, the yield from N—H insertion of ethyl 2-diazopropanoate into aniline is only 26% (product 4.5). To improve efficiency of this reaction, we examined the reaction of ethyl 2-diazopropanoate with a variety of axial mutants. In particular, the axial mutant WT-AxA provided the desired product in 83% yield, compared to 8% yield and 1.7% yield with axial mutant WT-AxS and WT-BM3 heme domain, respectively (FIG. 37B).
The reactions shown in FIG. 37B were carried out with 10 μM catalyst loading, 20 mM aniline, 10 mM Na2S2O4 and 10 mM ethyl 2-diazopropanoate as described above. For the final entry in FIG. 37B, whole cells expressing BM3-CIS-T438S at 2.5 μM were used. See, U.S. Provisional Application No. 61/711,640 for the procedure for catalysis with whole cells.

A short description of test [3]: N—H insertion, aniline with ethyl diazo acetate (EDA). An excerpt:
We have found a variety of P450 variants to be general catalysts for carbenoid N—H insertion. We combined aniline with EDA in the presence of a reductant (Na2S2O4) under argon atmosphere and tested the mixture with seven P450BM3 variants previously identified as competent catalysts for cyclopropanation (Coelho, P. et al., Science. 2013, 339, 307-310). In choosing this set of P450s, we hypothesized that cyclopropanation activity could correlate with ability to generate the iron-carbenoid intermediate that is also necessary for N—H insertion. Whereas wild type BM3 (WT-BM3 (SEQ ID NO:1), Table 20, entry 1) provided only trace amounts of the desired product (4.3), a few variants gave 4.3 in good yields after 12 h at room temperature. In particular, variant H2-5-F10 which is derived from a thermostable P450BM3 lineage (Lewis, J. C. et al. ChemBioChem, 2010, 11, 2502-2505) and contains 15 mutation from WT-BM3 (SEQ ID NO:1), formed 4.3 in 47% yield and 473 turnovers (TTN) using 0.1% protein relative to EDA (entry 7). […] In contrast, when 1 mol % of the isolated hemin prosthetic group was used as catalyst, the single and double insertion products were produced in a 3.5 to 1 ratio (with a total product yield of 51%).
A representative procedure for P450-catalyzed N—H insertion is as follows. To an unsealed crimp vial, 60 μL of a P450 solution (67 or 133 μM) was added and the vial was sealed. A 12.5 mM solution of sodium dithionite in phosphate buffer (0.1 M, pH=8.0) was degassed by bubbling with argon in a 6 mL crimp-sealed vial. The headspace of the 2 mL vials containing P450 solution were flushed with argon (no bubbling). The buffer/dithionite solution (360 μL) was then added to each reaction vial via syringe, and the gas lines were disconnected from the vials. 10 μL of an 800 mM stock of aniline was added via a glass syringe, followed by 10 μL of a 340 mM stock of EDA (both stocks in MeOH). The reaction vials were then placed in a tray on a plate shaker and left to shake at 40 rpm. The final concentrations of the reagents were typically: 20 mM aniline, 8.5 mM EDA, 10 mM Na2S2O4, and 10 or 20 μM P450. After 12 h at 25° C., the vials were removed from the shaker and uncapped and 1 mL of cyclohexane was added, followed by 20 μL of a 20 mM solution of phenethyl alcohol (internal standard). The mixture was transferred to a 1.5 mL Eppendorf tube and vortexed and centrifuged (13,000×g, 1 min.). The organic layer was dried over sodium sulfate if necessary then analyzed by GC, with comparison to an authentically prepared sample that has been verified by proton NMR ([…], Varian, CDCl3).
Substitution is well-tolerated on the aniline partner on both the ortho and para positions. Reactions were analyzed by a Shimadzu GC with FID detector and J&W HP-5 column (30 m×0.32 mm, 0.25 μm film) and calibrated to an independently prepared sample of each product using phenethyl alcohol as internal standard. Reaction of aniline and EDA was also performed in milligram scale without any organic cosolvent to provide 4.3 in 65% isolated yield.
Calibration curves were plotted as follows. Yields of N—H insertion products were determined using calibration curves made with independently synthesized standards that have been verified by proton NMR, with comparison to known literature data (Baumann, L. K. et al. Organometallics. 2007, 26, 3995-4002; Anding, B. J. et al. Organometallics. 2013, 32, 2599-2607). Two stock solutions of product were made at 160 mM and 40 mM. To four or five samples containing 380 μL of buffer, product was added from either of the stock solutions such at a final concentration of 0.5-8.0 mM in 400 μL was obtained. 20 μL of internal standard was added to each eppendorf tube, then 1 mL of cyclohexane was added and the tubes were vortexed and centrifuged (13,000 ×g, 30 seconds). The organic layer was then analyzed by GC. The ratio of the areas under the internal standard and product peaks were plotted against the concentration for each solution. […]

Test [4] in a line: P450BM3 compilation plate screen (GC, cyclopropane peaks). The conditions noted are these: P450BM3 variants.

B1: H2-5-F10: 9-10A TS + F87V, L75A, I263A, T268A, L437A (protein, listed as Bacillus megaterium)
chain: TIKEMPQPKTFGELKNLPLLNTDKPVQALMKIADELGEIFKFEAPGRVTRYLSSQRLIKEACDESRFDKNLSQAAKFARDFAGDGLVTSWTHEKNWKKAHNILLPSFSQQAMKGYHAMMVDIAVQLVQKWERLNADEHIEVSEDMTRLTLDTIGLCGFNYRFNSFYRDQPHPFIISMVRALDEVMNKLQRANPDDPAYDENKRQFQEDIKVMNDLVDKIIADRKARGEQSDDLLTQMLNGKDPETGEPLDDGNIRYQIITFLAAGHEATSGLLSFALYFLVKNPHVLQKVAEEAARVLVDPVPSYKQVKQLKYVGMVLNEALRLWPTAPAFSLYAKEDTVLGGEYPLEKGDEVMVLIPQLHRDKTVWGDDVEEFRPERFENPSAIPQHAFKPFGNGQRACIGQQFALHEATLVLGMMLKHFDFEDHTNYELDIKETATLKPKGFVVKAKSKKIPLGGIPSPSTEQSAKKVRKKAENAHNTPLLVLYGSNMGTAEGTARDLADIAMSKGFAPQVATLDSHAGNLPREGAVLIVTASYNGHPPDNAKQFVDWLDQASADEVKGVRYSVFGCGDKNWATTYQKVPAFIDETLAAKGAENIADRGEADASDDFEGTYEEWREHMWSDVAAYFNLDIENSEDNKSTLSLQFVDSAADMPLAKMHGAFSTNVVASKELQQPGSARSTRHLEIELPKEASYQEGDHLGVIPRNYEGIVNRVTARFGLDASQQIRLEAEEEKLAHLPLAKTVSVEELLQYVELQDPVTRTQLRAMAAKTVCPPHKVELEALLEKQAYKEQVLAKRLTMLELLEKYPACEMKFSEFIALLPSIRPRYYSISSSPRVDEKQASITVSVVSGEAWSGYGEYKGIASNYLAELQEGDTITCFISTPQSEFTLPKDPETPLIMVGPGTGVAPFRGFVQARKQLKEQGQSLGEAHLYFGCRSPHEDYLYQEELENAQSEGIITLHTAFSRMPNQPKTYVQHVMEQDGKKLIELLDQGAHFYICGDGSQMAPAVEATLMKSYADVHQVSEADARLWLQQLEEKGRYAKDVWAG
modifications: cytochrome P450NADPH-P-450 reductase precursor, cytochrome P450 (BM3), CYP102A1
notes: 9-10A TS + F87V, L75A, I263A, T268A, L437A
For B1, in test [1], the production of lidocaine entry was “Production of lidocaine was observed”. The “yield of product 4.5” value in test [2] is recorded as 26%. Further, the double insertion product result in test [3] (GC-MS and 1H NMR, milligram-scale reactions) is “No double insertion product was observed”. Moreover, the “isolated yield of 4.3” value in test [3] (milligram scale, 25 mM EDA, 25 mM aniline, 25 μM protein, 25 mM Na2S2O4, no organic cosolvent) amounted to 65%. The molecule further displayed a TTn in test [3] (protein 10 uM, EDA 8.5 mM, aniline 20 mM, Na2S2O4 10 mM, 12 h) of 473. For the same molecule, the “% Yield” value in test [3] (protein 10 uM, EDA 8.5 mM, aniline 20 mM, Na2S2O4 10 mM, 12 h, product 4.3) worked out at 47%. Also, the “ee (cis)” value in test [4] ((R,S)-(S,R), chiral β-CDX GC) is recorded as −56. For the same molecule, the de in test [4] (diastereomeric excess = ([cis] − [trans])/([cis] + [trans])) is reported as −46. The same molecule returned an Absolute activity in test [4] (sum of the area of the cyclopropane peaks over the area of the internal standard) of 0.1412.
